Test results: paper PMC5397179 (2017)

B1: Biotinylated full length PcrA (Geobacillus stearothermophilus), wild type [modified: biotin; biotin] [Geobacillus stearothermophilus] / DNA pol I, Bacillus subtilis [B. subtilis 168 (endogenous in the cell extract)] (parent complex)
chain 1: MNFLSEQLLAHLNKEQQEAVRTTEGPLLIMAGAGSGKTRVLTHRIAYLMAEKHVAPWNILAITFTNKAAREMRERVQSLLGGAAEDVWISTFHSMCVRILRRDIDRIGINRNFSILDPTDQLSVMKTILKEKNIDPKKFEPRTILGTISAAKNELLPPEQFAKRASTYYEKVVSDVYQEYQQRLLRNHSLDFDDLIMTTIQLFDRVPDVLHYYQYKFQYIHIDEYQDTNRAQYTLVKKLAERFQNICAVGDADQSIYRWRGADIQNILSFERDYPNAKVILLEQNYRSTKRILQAANEVIEHNVNRKPKRIWTENPEGKPILYYEAMNEADEAQFVAGRIREAVERGERRYRDFAVLYRTNAQSRVMEEMLLKANIPYQIVGGLKFYDRKEIKDILAYLRVIANPDDDLSLLRIINVPKRGIGASTIDKLVRYAADHELSLFEALGELEMIGLGAKAAGALAAFRSQLEQWTQLQEYVSVTELVEEVLDKSGYREMLKAERTIEAQSRLENLDEFLSVTKHFENVSDDKSLIAFLTDLALISDLDELDGTEQAAEGDAVMLMTLHAAKGLEFPVVFLIGMEEGIFPHNRSLEDDDEMEEERRLAYVGITRAEEELVLTSAQMRTLFGNIQMDPPSRFLNEIPAHLLETASRRQAGASRPAVSRPQASGAVGSWKVGDRANHRKWGIGTVVSVRGGGDDQELDIAFPSPIGIKRLLAKFAPIEKV
chain 2: MTERKKLVLVDGNSLAYRAFFALPLLSNDKGVHTNAVYGFAMILMKMLEDEKPTHMLVAFDAGKTTFRHGTFKEYKGGRQKTPPELSEQMPFIRELLDAYQISRYELEQYEADDIIGTLAKSAEKDGFEVKVFSGDKDLTQLATDKTTVAITRKGITDVEFYTPEHVKEKYGLTPEQIIDMKGLMGDSSDNIPGVPGVGEKTAIKLLKQFDSVEKLLESIDEVSGKKLKEKLEEFKDQALMSKELATIMTDAPIEVSVSGLEYQGFNREQVIAIFKDLGFNTLLERLGEDSAEAEQDQSLEDINVKTVTDVTSDILVSPSAFVVEQIGDNYHEEPILGFSIVNETGAYFIPKDIAVESEVFKEWVENDEQKKWVFDSKRAVVALRWQGIELKGAEFDTLLAAYIINPGNSYDDVASVAKDYGLHIVSSDESVYGKGAKRAVPSEDVLSEHLGRKALAIQSLREKLVQELENNDQLELFEELEMPLALILGEMESTGVKVDVDRLKRMGEELGAKLKEYEEKIHEIAGEPFNINSPKQLGVILFEKIGLPVVKKTKTGYSTSADVLEKLADKHDIVDYILQYRQIGKLQSTYIEGLLKVTRPDSHKVHTRFNQALTQTGRLSSTDPNLQNIPIRLEEGRKIRQAFVPSEKDWLIFAADYSQIELRVLAHISKDENLIEAFTNDMDIHTKTAMDVFHVAKDEVTSAMRRQAKAVNFGIVYGISDYGLSQNLGITRKEAGAFIDRYLESFQGVKAYMEDSVQEAKQKGYVTTLMHRRRYIPELTSRNFNIRSFAERTAMNTPIQGSAADIIKKAMIDMAAKLKEKQLKARLLLQVHDELIFEAPKEEIEILEKLVPEVMEHALALDVPLKVDFASGPSWYDAK
B2: Biotinylated full length PcrA (Geobacillus stearothermophilus), wild type [modified: biotin; biotin] [Geobacillus stearothermophilus] / LigA (NAD+-dependent DNA ligase), Bacillus subtilis [B. subtilis 168 (endogenous in the cell extract)] (parent complex)
chain 1: B1 chain 1
chain 2: MDKETAKQRAEELRRTINKYSYEYYTLDEPSVPDAEYDRLMQELIAIEEEHPDLRTPDSPTQRVGGAVLEAFQKVTHGTPMLSLGNAFNADDLRDFDRRVRQSVGDDVAYNVELKIDGLAVSLRYEDGYFVRGATRGDGTTGEDITENLKTIRNIPLKMNRELSIEVRGEAYMPKRSFEALNEERIKNEEEPFANPRNAAAGSLRQLDPKIAAKRNLDIFVYSIAELDEMGVETQSQGLDFLDELGFKTNQERKKCGSIEEVITLIDELQAKRADLPYEIDGIVIKVDSLDQQEELGFTAKSPRWAIAYKFPAEEVVTKLLDIELNVGRTGVITPTAILEPVKVAGTTVSRASLHNEDLIKEKDIRILDKVVVKKAGDIIPEVVNVLVDQRTGEEKEFSMPTECPECGSELVRIEGEVALRCINPECPAQIREGLIHFVSRNAMNIDGLGERVITQLFEENLVRNVADLYKLTKERVIQLERMGEKSTENLISSIQKSKENSLERLLFGLGIRFIGSKAAKTLAMHFESLENLKKASKEELLAVDEIGEKMADAVITYFHKEEMLELLNELQELGVNTLYKGPKKVKAEDSDSYFAGKTIVLTGKLEELSRNEAKAQIEALGGKLTGSVSKNTDLVIAGEAAGSKLTKAQELNIEVWNEEQLMGELKK
B3: Biotinylated full length PcrA (Geobacillus stearothermophilus), wild type [modified: biotin; biotin] [Geobacillus stearothermophilus] / UvrB, Bacillus subtilis [B. subtilis 168 (endogenous in the cell extract)] (parent complex)
chain 1: B1 chain 1
chain 2: MKDRFELVSKYQPQGDQPKAIEKLVKGIQEGKKHQTLLGATGTGKTFTVSNLIKEVNKPTLVIAHNKTLAGQLYSEFKEFFPNNAVEYFVSYYDYYQPEAYVPQTDTFIEKDASINDEIDKLRHSATSALFERRDVIIIASVSCIYGLGSPEEYREMVVSLRTEMEIERNELLRKLVDIQYARNDIDFQRGTFRVRGDVVEIFPASRDEHCVRVEFFGDEIERIREVDALTGEILGDRDHVAIFPASHFVTRAEKMEKAIQNIEKELEEQLKVMHENGKLLEAQRLEQRTRYDLEMMREMGFCSGIENYSRHLTLRPPGSTPYTLLDYFPDDFMIVVDESHVTIPQVRGMFNGDQARKQVLVDHGFRLPSALDNRPLRFEEFEKHMHNIVYVSATPGPYEIEHTDEMVEQIIRPTGLLDPLIDVRPIEGQIDDLIGEIQARIERNERVLVTTLTKKMSEDLTDYLKEIGIKVNYLHSEIKTLERIEIIRDLRLGKYDVLVGINLLREGLDIPEVSLVAILDADKEGFLRSERSLIQTIGRAARNAEGRVIMYADKITKSMEIAINETKRRREQQERFNEEHGITPKTINKEIRDVIRATVAAEDKAEYKTKAAPKLSKMTKKERQKVVEQMEHEMKEAAKALDFERAAELRDLLLELKAEG

Variants of: B1
Test: pulldown quantified by mass spectrometry; parent: 97; read off a plot

screen value	Variant
~70	chain 1 L714A
~49	chain 1 K712A

Variants of: B2
Test: pulldown quantified by mass spectrometry; parent: 26; read off a plot

screen value	Variant
~25	chain 1 L714A
~21	chain 1 K712A

Variants of: B3
Test: pulldown quantified by mass spectrometry; parent: 12; read off a plot

screen value	Variant
~2.3	chain 1 L714A
~0	chain 1 K712A
